The data set relates to fatty acid substrates. The experiment in a line: Yeast expression of the omega-3 desaturase (SDD17, sdd17 in pYX242) with exogenous fatty acid substrates, FAME/GC analysis. It is filed as cell-based, Saccharomyces cerevisiae (SC334). As to conditions: for % Conversion: 24° C. The source says: To determine the substrate specificity and the class of reaction catalyzed by the SDD17-protein, sdd17 was heterologously expressed in a Saccharomyces cerevisiae (SC334). Because S. cerevisiae cannot synthesize fatty acids beyond OA (18:1n-9), it is an ideal system to use to determine enzyme activity on substrates longer than OA because no background enzyme activity will be detected. Suitable fatty acid substrates can be exogenously supplied to the host which are taken up by the cell and acted on by the expressed protein of the transformed sdd17 gene.
Clone pRSP19, which contained the full-length omega-3 desaturase (sdd17) from S. diclina cloned into pYX242, was transformed into Saccharomyces cerevisiae (SC334) using the “Alkali-Cation Yeast Transformation”-brand kit (BIO 101, Vista, Calif.). Transformants were selected for leucine auxotrophy on media lacking leucine (DOB [-Leu]). To detect the specific desaturase activity of these clones, transformants were grown in the presence of 50 μM of each of LA (18:2n-6), GLA (18:3n-6),
DGLA (20:3n-6), AA (20:4n-6), and adrenic acid (22:4n-6). Conversion of these exogenously supplied fatty acid substrates into a product having one additional unsaturation indicates the presence of a specific desaturase activity that is not found in the wild-type S. cerevisiae:
The negative control strain was S. cerevisiae transformed with the pYX242 vector. The experimental cultures and the control cultures were grown simultaneously and analyzed.
The cultures were vigorously agitated (250 rpm) and grown for 48 hours at 24° C. in the presence of 50 μM (final concentration) of the various substrates (see Table 3). The cells were spun down, washed once in distilled water, and the pellets resuspended in methanol; chloroform was added along with tritridecanoin (as an internal standard). These mixtures were incubated for at least an hour at room temperature, or at 4° C. overnight. The chloroform layer was extracted and filtered through a Whatman filter with 1 gm anhydrous sodium sulfate to remove particulate matter and residual water. The organic solvents were evaporated at 40° C. under a stream of nitrogen. The extracted lipids were then converted to fatty acid methyl esters (FAME) for gas chromatography analysis (GC) by adding 2 ml 0.5 N potassium hydroxide in methanol to a closed tube. The samples were heated to 95° C.-100° C. for 30 minutes and cooled to room temperature. Approximately 2 ml 14% borontrifluoride in methanol was added and the heating repeated. After the extracted lipid mixture cooled, 2 ml of water and 1 ml of hexane were added to extract the FAME for analysis by GC. The percent conversion was calculated using the formula: […]
(i.e. 15° C.). Here, 50 μM of exogenous substrate was added to the transformants and the cultures were grown for 48 hours at 15° C. Fatty acid analysis was carried out as described above. The overall uptake of substrate by S. cerevisiae at 15° C. was lower than that seen at 24° C. (compare Table 3 & Table 4). However the percent conversion of substrate to product by the enzyme increased at 15° C. Since the presence of lower concentration of exogenous fatty acid substrate seemed to improve the activity of the enzyme, it is possible that fatty acid substrates at high concentrations may exert a feed-back inhibition on this enzyme. […]

Data on one molecule can be found in patent US8067674B2, “Desaturase genes, enzymes encoded thereby, and uses thereof” (Abbott Laboratories, priority 2002, dated 2011).

B1: SDD17: omega-3 desaturase of 358 amino acid residues (SEQ ID NO: 26) encoded by sdd17 from Saprolegnia diclina (ATCC 56851) (protein, listed as Saprolegnia diclina)
chain: MTEDKTKVEFPTLTELKHSIPNACFESNLGLSLYYTARAIFNASASAALLYAARSTPFIADNVLLHALVCATYIYVQGVIFWGFFTVGHDCGHSAFSRYHSVNFIIGCIMHSAILTPFESWRVTHRHHHKNTGNIDKDEIFYPHRSVKDLQDVRQWVYTLGGAWFVYLKVGYAPRTMSHFDPWDPLLLRRASAVIVSLGVWAAFFAAYAYLTYSLGFAVMGLYYYAPLFVFASFLVITTFLHHNDEATPWYGDSEWTYVKGNLSSVDRSYGAFVDNLSHHIGTHQVHHLFPIIPHYKLNEATKHFAAAYPHLVRRNDEPIITAFFKTAHLFVNYGAVPETAQIFTLKESAAAAKAKSD
Regarding B1, the “percent conversion of substrate to product at 15° C. compared with 24° C.” value (15° C. vs 24° C., 50 μM substrate, 48 hours) is reported as “increased”. The “% Conversion” value by setting is: (20:3 n-6 (DGLA) to 20:4 n-3 (ETA) (Delta 17), 48 hours, 50 μM substrate) 5%; (20:4 n-6 (AA) to 20:5 n-3 (EPA) (Delta 17), 48 hours, 50 μM substrate) 13.8%; (22:4 n-6 (adrenic acid) to 22:5 n-3 (DPA) (Delta 19), 48 hours, 50 μM substrate) 4%. Also, the “desaturation of C18 omega-6 fatty acyl substrates to their corresponding omega-3 fatty acids” value (under the conditions tested) was “did not desaturate”.
